Experimental findings from article PMC7866087, “Evaluation of Computationally Designed Peptides against TWEAK, a Cytokine of the Tumour Necrosis Factor Ligand Family” (International Journal of Molecular Sciences, 2021) are described below.

The assay deals with T1, human His6-TWEAK protein (Homo sapiens, UniProt O43508).
T1 construct: purchased R&D Systems
T1 sequence (O43508 97-249 limits assumed): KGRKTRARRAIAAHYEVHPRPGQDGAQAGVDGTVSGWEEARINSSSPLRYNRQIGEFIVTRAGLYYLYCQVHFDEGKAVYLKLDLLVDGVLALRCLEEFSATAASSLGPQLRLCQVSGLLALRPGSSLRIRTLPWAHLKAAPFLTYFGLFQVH
The assay can be described thus: SPR binding of peptides to immobilized His6-TWEAK. The settings on record: for binding affinity for immobilized TWEAK: negative controls, global curve fit not attempted. The text has this:
SPR biosensor interaction analysis, a label-free screening approach, was used for real-time monitoring of the kinetics and affinity of peptide hits to TWEAK previously identified by cell-based screening. Peptides from pools 1 and 5 were selected both as positive (49, 30, 35 and 43) and negative hits (1 and 42). For our purposes, TWEAK was chosen as ligand, while peptides were chosen as analytes and passed across ligand-derivatized surface. Nitrilotriacetic acid-coated sensor chips (NTA chip) and a coupling approach that results in the capture of a His6-protein in a non-random orientation by the His6 epitope prior to direct free amine-based covalent coupling was used for histidine-tagged TWEAK immobilization.
After chip validation, peptides selected on our cell-based microarray screening were tested.
For each titration, a zero-analyte surface as a control was subtracted from test sensorgram as well as non-specific binding to the blank flow cell without protein; and the chip surface was regenerated in order to remove any remaining analyte. The black curves show the experimental data, while the overlaid red lines represent a global fit of the entire data set to a 1:1 Langmurian interaction model. The fitting process provided both kinetic association and dissociation rate constants (Ka and Kd), as well as equilibrium dissociation constant (KD) values indicated in Figure 6.
Binding assays were performed at 25 °C in a Biacore 3000 instrument (GE Healthcare, Uppsala, Sweden) using nitrilotriacetic (NTA) sensor chips (GE Healthcare) and HBS-EP (0.01 M HEPES pH 7.4, 0.15 M NaCl, 3 mM EDTA, 0.005 % v/v Surfactant P20) as running buffer. Histidine-tagged human TWEAK (His6-TWEAK) protein (R&D Systems, Minneapolis, MN, USA) was covalently immobilized on the sensor surface using a capture coupling method. Briefly, the NTA surface was first stabilized by injection of regeneration buffer (20 μL EDTA-containing running buffer at 20 μL/min) followed by Ni^2+ binding to the surface (40 μL of 500 μM NiCl2 in running buffer at 20 μL/min). The carboxymethyl dextran surface was then activated for primary amine coupling by injecting coupling solution (30 μL of a 1:1 N-hydroxysuccinimide (NHS)/1-ethyl-3-[3-(dimethylamino)-propyl]carbodiimide hydrochloride (EDC) mixture at 5 μL/min). His6-TWEAK protein in pH 7.4 running buffer was then injected over the surface (60 μL of 10 μg/mL His6-TWEAK at 5 μL/min). To block uncoupled primary amines on the sensor surface, ethanolamine was passed over the surface (35 μL 1M ethanolamine at 5 μL/min). Ligand surfaces were finally conditioned with a 20 µL injection of regeneration solution containing 350 mM EDTA at 20 μL/min. Immobilization levels ranged from 1500 to 7000 resonance units (RUimmob) to test different ligand densities. A blank flow cell on the chip was created by simple injection of 20 μL of regeneration buffer injected over the sensor surface.
Binding experiments using a monoclonal anti-TWEAK antibody (Abcam ref. 199405, Cambridge, UK) were run to ascertain adequate functionalization of the immobilized surface. Selected synthetic TWEAK-Fn14 inhibitory peptides at two-fold serial dilutions from 800 µM to 0 µM in running buffer were flown over the chip for 5 min at 35 µL/min. The dissociation phase was monitored for 10 min at the same flow rate and followed by a regeneration step with 10 µL of 18 mM NaOH. Specific binding responses for each channel were obtained by double referencing; subtracting non-specific binding to the blank flow cell plus an internal reference standard, namely buffer injection response. Each sample was run in triplicate. The experimental data were fitted to a 1:1 Langmuir binding model by the BIAevaluation software version 4.1 (GE Healthcare, Uppsala, Sweden).
Background: SPR reads the build-up and loss of mass on a sensor chip optically.

[1] abbreviates: 25 °C, HBS-EP pH 7.4, Biacore 3000, NTA chip, 1:1 Langmuir global fit, representative of at least three independent experiments.

Consider 1: GNGTDDNSGTSY [Peptide 1], for which the “binding affinity for immobilized TWEAK” value is recorded as “negligible binding affinity”. Same read-out and setting: next, 42: YNGHVKDD [Peptide 42]: “negligible binding affinity”. Consider SWYDHMAGDSSY [Peptide 35], for which, under setting [1], the ka was determined as 2.06 M⁻¹ s⁻¹ and the kd worked out at 0.00285 s⁻¹.
